Test results from patent publication US20210113678A1 (ENTEROME S A, published 2021).

How the values were obtained:
[1] = target: T1, HLA-A*0201 molecule on human T2 cells (human); assay: T2 cells expressing HLA-A*0201, anti-HLA-A2-PE, FACS (Example 7)
T1 construct: read out with anti-HLA-A2 antibody BB7.2-PE; also called HLA-A2

[2] = target: T1, HLA-A*0201 molecule on human T2 cells; assay: T2 cells expressing HLA-A*0201, anti-HLA-A2-PE, FACS
[3] = target: T1, HLA-A*0201 molecule on human T2 cells; assay: as above; remark: listed apart in the source
[4] = target: T1, HLA-A*0201 molecule on human T2 cells; assay: T2 cells expressing HLA-A*0201, anti-HLA-A2-PE, FACS (Example 8)
[5] = target: T1, HLA-A*0201 molecule on human T2 cells; assay: T2 cells expressing HLA-A*0201, anti-HLA-A2-PE, FACS (Example 9)
[6] = target: T1, HLA-A*0201 molecule on human T2 cells; assay: as above; remark: listed apart in the source

| Binder | In vitro binding affinity (relative to reference peptide HIV pol 589-597) [1] | mean relative fluorescence intensity at 1.5625 µM peptide [2] | mean relative fluorescence intensity at 3.125 µM peptide [2] | mean relative fluorescence intensity at 6.25 µM peptide [2] | mean relative fluorescence intensity at 25 µM peptide [2] | mean relative fluorescence intensity at 50 µM peptide [2] | mean relative fluorescence intensity at 100 µM peptide [2] | Concentration of peptide that induces 20% of HLA-A2 expression [3] | In vitro binding affinity (relative to reference peptide HIV pol 589-597) [3] | Concentration of peptide that induces 20% of HLA-A2 expression [4] | In vitro binding affinity (relative to reference peptide HIV pol 589-597) [4] | mean relative fluorescence intensity at 0.1 µM peptide [5] | mean relative fluorescence intensity at 1 µM peptide [5] | mean relative fluorescence intensity at 10 µM peptide [5] | mean relative fluorescence intensity at 100 µM peptide [5] | Concentration of peptide that induces 20% of HLA-A2 expression [6] | In vitro binding affinity (relative to reference peptide HIV pol 589-597) [6] |
| --- | --- | --- | --- | --- | --- | --- | --- | --- | --- | --- | --- | --- | --- | --- | --- | --- | --- |
| FLPFGFILV [IL13RA2-B] | 0.49 | 14.8 % of HIV peptide | 15.7 % of HIV peptide | 40.8 % of HIV peptide | 86.5 % of HIV peptide | 113 % of HIV peptide | 128 % of HIV peptide | 2.9 µM | 0.3 | 2.9 µM | 0.3 | – | – | – | – | – | – |
| FLPFGFILM [peptide 1F9M] | 2.62 | – | – | – | – | – | – | – | – | – | – | – | – | – | – | – | – |
| ALPFGFILV [comparative peptide 1A9V] | 3.06 | – | – | – | – | – | – | – | – | 36.5 µM | 3.6 | – | – | – | – | – | – |
| ILPFGFILA [peptide 1I9A] | 2.22 | – | – | – | – | – | – | – | – | – | – | – | – | – | – | – | – |
| LMLGEFLKL [peptide 2M] | – | – | – | – | – | – | – | – | – | – | – | 0.76 % of HIV peptide | 8.37 % of HIV peptide | 48.5 % of HIV peptide | 75.2 % of HIV peptide | 2.87 µM | 3.38 |
| LTLGEFLKL [BIRC5-H] | – | 1.7 % of HIV peptide | 1.4 % of HIV peptide | 10.8 % of HIV peptide | 9.8 % of HIV peptide | 18.9 % of HIV peptide | 35.6 % of HIV peptide | 53 µM | 16.1 | – | – | 0 % of HIV peptide | 0 % of HIV peptide | 3.52 % of HIV peptide | 20.5 % of HIV peptide | 95.9 µM | 113 |
| FMLGEFLKL [BIRC5-B1] | – | 1.9 % of HIV peptide | 22.3 % of HIV peptide | 36.1 % of HIV peptide | 61.7 % of HIV peptide | 77.1 % of HIV peptide | 117 % of HIV peptide | 2.7 µM | 0.8 | – | – | 1.07 % of HIV peptide | 17.4 % of HIV peptide | 65.1 % of HIV peptide | 102 % of HIV peptide | 1.24 µM | 1.46 |
| FLPFGFILPV [IL13RA2-L] | – | – | – | – | – | – | – | – | 0.3 | – | 0.3 | – | – | – | – | – | – |
